Measured values from doi:10.1101/2020.10.08.332312 (bioRxiv, 2020).

Biological target: T1, Trs31 (subunit of the recombinant TRAPPIII complex) (S. cerevisiae, UniProt Q03337 1-283)
T1 sequence: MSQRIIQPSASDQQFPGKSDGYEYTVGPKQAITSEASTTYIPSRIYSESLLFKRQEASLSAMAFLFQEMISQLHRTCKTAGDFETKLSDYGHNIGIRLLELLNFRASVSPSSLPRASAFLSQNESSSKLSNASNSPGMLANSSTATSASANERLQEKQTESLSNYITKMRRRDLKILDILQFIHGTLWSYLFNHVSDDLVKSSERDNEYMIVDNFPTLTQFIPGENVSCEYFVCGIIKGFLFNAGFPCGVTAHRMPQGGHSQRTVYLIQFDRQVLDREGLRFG
Assay: cryo-EM structure

B1: Ypt1-7xHis (yeast Rab1/Ypt1 with the two C-terminal cysteines replaced by an affinity tag) (natural protein)
chain: not shown
binding result: binds
